Data reported in patent US20240408227A1.

Target: recombinant human TfR1 (human) (UniProt P02786)
Test: SPR array (Carterra LSA), IgG captured, TfR as analyte, 25 C

recombinant human TfR1 (human), sequence (P02786 89-760 limits assumed): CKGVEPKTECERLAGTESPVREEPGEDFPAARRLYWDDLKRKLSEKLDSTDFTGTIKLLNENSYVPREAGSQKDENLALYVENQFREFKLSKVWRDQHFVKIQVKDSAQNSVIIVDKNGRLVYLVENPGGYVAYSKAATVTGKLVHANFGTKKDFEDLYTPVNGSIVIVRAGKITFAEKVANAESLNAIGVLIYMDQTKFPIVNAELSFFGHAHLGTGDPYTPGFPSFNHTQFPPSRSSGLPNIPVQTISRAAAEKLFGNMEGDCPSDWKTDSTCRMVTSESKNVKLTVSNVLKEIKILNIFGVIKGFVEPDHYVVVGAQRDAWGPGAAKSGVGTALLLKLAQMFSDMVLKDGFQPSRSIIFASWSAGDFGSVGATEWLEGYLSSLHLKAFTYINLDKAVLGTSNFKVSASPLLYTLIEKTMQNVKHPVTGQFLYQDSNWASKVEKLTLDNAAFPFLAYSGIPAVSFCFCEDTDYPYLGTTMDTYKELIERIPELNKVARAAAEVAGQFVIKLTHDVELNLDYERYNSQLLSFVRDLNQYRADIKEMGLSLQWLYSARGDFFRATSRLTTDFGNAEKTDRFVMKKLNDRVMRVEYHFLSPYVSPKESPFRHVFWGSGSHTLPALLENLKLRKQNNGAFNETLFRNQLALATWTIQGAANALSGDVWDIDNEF

**Q.** With “OKT9 control anti-TfR1 antibody (mouse IgG)” as the substance, how does the Kd read?
**A.** The Kd was 0.536 nM.

**Q.** What about the kon of the same substance?
**A.** The kon was 774000 M⁻¹ s⁻¹.
